Experimental data from US10869832B2, “Substance delivery device and substance delivery method using the same” (priority 2013, dated 2020).

Tested on: OVA-specific IgG
Experiment: OVA-specific IgG by ELISA after single-dose immunization
Format: in vivo
Settings: SD rats, two weeks after injection, single dose (IM 500 μg OVA, MN 200 μg OVA)
Protocol: 4-week-old SD rats are divided into four groups. Rats of the first three groups are injected with saline, OVA, and chitosan hydrogel loaded with OVA by intramuscular inoculation, respectively. The fourth group is administrated with OVA through the microneedle patch of the present embodiment. In detail, the SD rat is weighed, anesthetized, and shaved. 200 μl of saline is injected into the thigh of each SD rat of the first group (“IM saline” group). 500 μg of OVA in the same volume are injected into the thigh of each SD rat of the second group (“IM-OVA” group). 200 μl of chitosan hydrogel loaded with 500 μg of OVA (mixed in the same ratio as the microneedle patch) are injected into the thigh of each SD rat of the third group (“IM-OVA+CS” group). A microneedle patch encapsulating 200 μg of OVA is applied the each SD rat of the fourth group (“MN-OVA” group). The blood of each SD rat of each group sampled at the 0, 2nd and 4th week after injection is centrifuged for 5 minutes at 3000 rpm to separate serum from blood cells in the plasma. IgG levels in the collected serum are then evaluated by ELISA.

B1: IM-OVA: 500 μg of OVA (ovalbumin) injected intramuscularly (protein, UniProt P01012 2-386, looked up)
Ovalbumin: GSIGAASMEFCFDVFKELKVHHANENIFYCPIAIMSALAMVYLGAKDSTRTQINKVVRFDKLPGFGDSIEAQCGTSVNVHSSLRDILNQITKPNDVYSFSLASRLYAEERYPILPEYLQCVKELYRGGLEPINFQTAADQARELINSWVESQTNGIIRNVLQPSSVDSQTAMVLVNAIVFKGLWEKAFKDEDTQAMPFRVTEQESKPVQMMYQIGLFRVASMASEKMKILELPFASGTMSMLVLLPDEVSGLEQLESIINFEKLTEWTSSNVMEERKIKVYLPRMKMEEKYNLTSVLMAMGITDVFSSSANLSGISSAESLKISQAVHAAHAEINEAGREVVGSAEAGVDAASVSEEFRADHPFLFCIKHIATNAVLFFGRCVSP
  OVA-specific IgG level: much lower than the MN-OVA and IM-OVA+CS group
